Source: the DeepSol protein solubility set

Assay: soluble on expression in E. coli; label from the status in PepcDB or PDB records

Soluble on expression in E. coli, not soluble:
MAHHHHHHMNHVRHALDMDNEYTMVLDIGTIRRPAAQHRSESFMAASTTEWETKVERAERLSLLEGKKGCCYFSLYPEDVSAAFHEDAKSFPDVFSVEDAFVHCARLNLPMGEVAALLPAIPTETAEQVMHNLAEKCVIASPQSLAMTFLGEMSARLPVDLDIASFIIGGCNVGLGEAAVAIGSVAALPFRSITPLTYSSVPWNEATTWSREKYAGDIARHSDLLADTLVFIEWLKLRARGESTAEFLNTILVQEFKFVKIEGLMKYIREQLTNYVFLDRFDTLELLEDVSTSVQENSTIFLFLQAVALARRAAFIRDAGHLNEKDRYASMAFVRTSKRLMPHNYIPSSIKWDTGRILIPVILKNSTNILAGLFSLIHTPYFFASLLLLYPYVEYSKPVITDKGRVVYFGVSCNRQMKRFMVSIEEAAQILDFREKINLALSCMQALRTLSHPILKTKFLLILKKHDRLFDVERLHKNIRSQLLELVTELNVTEHQGSFETFATHCTAPKELLPMTDTPAMDVSVLRRFVDGTLWDSLPTPGSVVKPRAASFAGTPSTLPSAPLISTNDEDDDEEVEIIQDSYFMRHGPLIEDDDDD
AIFELMNEAYAPLYGFSALSQGQINQYIKMYLPIVDLRMVTLVTDAEDKLVAVGISMPSLSEALQKAKGRLLPMGWYHLLKVLFLHKYPPMLDLLLVAVKPEYQNKGVNALLFSDLIPVYQQLGFKYA
MVYLYKKGVGMNEQSQAKSPEALRAMVAGTLANFQHPTLKHNLTTLKALHHVAWMDDTLHVELVMPFVWHSAFEELKEQCSAELLRITGAKAIDWKLSHNIATLKRVKNQPGINGVKNIIAVSSGKGGVGKSSTAVNLALALAAEGAKVGILDADIYGPSIPTMLGAENQRPTSPDGTHMAPIMSHGLATNSIGYLVTDDNAMVWRGPMASKALMQMLQETLWPDLDYLVLDMPPGTGDIQLTLAQNIPVTGAVVVTTPQDIALIDAKKGIVMFEKVEVPVLGIVENMSVHICSNCGHHEPIFGTGGAEKLAEKYHTQLLGQMPLHISLREDLDKGTPTVISRPESEFTAIYRQLADRVAAQLYWQGEVIPGEISFRAVLEHHHHHH
MMFPAKIISLRGGATEAIVSADLDRKTELAQETATRWFERRLSLRSPLDPPLPERPGRPEKPELVPPTAVERRSLHSVKGRIALLHAIAHIELNAVDLALDIVARYASEPVPHSFFDGWMQVAFEEAKHFRLVRDRLVSLGADYGDLPAHDGLWQAAHSTRNDLTARLAVVPLILEARGLDVTPSLQAKMRETGDLESAAVLDVIYNDEKGHVAIGAKWFRFLCAREKKDPAATFRQLVRSNFRGPLKPPFNDLARAEAGLTPSFYRSLTSVSHSLEHHHHHH
MGSDKIHHHHHHMISTANLTIQFGPKPLFENVSVKFGEGNRYGLIGANGSGKSTFMKIIGGDLEPSAGNVSLEPGVRLGKLRQDQFAFEEVRVLDVVMMGHTEMWAAMSERDAIYANPEATEDDYMRAADLEAKFAEYDGYTAEARAGELLLGLEIAVDQHNLLMREIAPGWKLRVLLAQALFSNPDVLLLDEPTNNLDINTIRWLENVLNGYQSTMIIISHDRHFLNQVCTHMADVDYGEIRVYPGNYDDYMLASTQARERLTANNAKAKERIVELQDFVRRFAANKSKSRQATSRLKQIDRIKADQVEVKPSSRQNPYIRFEQNKVMHRLAVTIEKLSKSYDQPVIRDFSAMVDAGEKVAIIGANGVGKTTLLRMLATDLAPDSGTVKWSENADIGYMAQDVSDQFQQGDINLFDWMAEHRQPGDDDQSIRSALGRLLFSGDDLPKAPKVLSGGEKNRMTFGRLMLGRHNVMLLDEPTNHLDMESIESLQFALEKYEGALIFVSHDREFVSGLATRIIEILPDGELVDYRGGYEDYLASRGIEA
MAAQKSALILLPPEDAEEIEVIVTGDVLVRGGLQVLYAGSSTEPVKCAKGARIVPDVALKDVKNKTFDIIIIPGGPGCSKLAECPVIGELLKTQVKSGGLIGAICAGPTVLLAHGIVAERVTCHYTVKDKMTEGGYKYLDDNVVISDRVITSKGPGTAFEFALKIVETLEGPEKTNSLLKPLCLAK
MGSDKIHHHHHHMVETKLIIRADDLGYSDAVNIGIERSVHKGIINNVGVMVNMPTTLDGLSMIRDTKVCLGLHVVISSGRPLLNPKFIPSIVDDDGAFLSSADYRKAPNDFVNLDEVILEIEAQYQKFIELVGRKPDYFEGHAVVSDNFFKGLLVVAKCHQLNLLQVTLNSGRPSLLFKGHSLHVFMESMNKDYNPYQTLKRAVLSSCDEEYPMMICHPGYLDDYLLKHSSLTTPRTKEVEMLTDPQVRAWLYQHQVRLIKYNEI
MGSDKIHHHHHHMDTNKLIPLLSDMAIFVTVIEQGNFSKAAKKLGVTPSAVSRQISRLEDALGIKLLQRTTRQLALTESGKLTFDYCKQMVESADQAVNASRSATSTVSGLLRVSAPKSLANKVLRPLFVEFLKCYPDIQLHLKVTDRILDPIHDGVDFLIHINDYPIEALVNIKIGRVEQVLCASPEFLQSHTPPTHPDDLKYLSCICLGENMVDNRWRFINENQQTTVQVAGSYLLNHSDMRRDAIEQGFGIGPLPDYIAQQGIKTGKLIPLLEGWQLTGSYQGDICLQYVQSKYLPNKNRVFIDFMKQKLLIIQPDS
MGSDKIHHHHHHMFIGFDYGTANCSVAIMRDGHPQLLTMENNSALLPSMLCAPTREAVSEWLYRHHDVPATDEETQALLRRAIRYNREEDIEVGAQSVQFGLASLAHYIDDPQEVWFVKSPKSFLGASGLKPQQVALFEDLVCAMMVHIRHTAHSQLPEAITQAVIGRPINFQGLGGDDANRQAQGILERAAKRAGFQEVVFQYEPVAAGLDYEATLREEKRVLVVDIGGGTTDCSMLLMGPQWRQRADRENSLLGHSGCRVGGNDLDIALAFKNLMPLLGMGGETEKGIALPVLPWWNAVAINDVPAQSDFYSSANGRLLNDLVRNAREADKVALLLKVWRQRLSYRLVRCAEESKIALSGQADVTARLPFISDDLAVAISQQGLEAALDQPLTRILEQVQLALDSAQEKPDVIYLTGGSARSPLIKKALSEQLPGIPVAGGDDFGSVTAGLARWAEVVFR
MGHHHHHHSHMVYPEEPFWVLPTVTGFYEDRDYRVNVVEALQEFWQMKQSRGAELKNGALVIYESIPSNSQPYICFVTLPGGSCFGSFQNCPTKAEARRSSAKIALMNSVFNEHPSRRISDEFIQKAVQDARTSFKGTSQINEGTESGIGAFRFMLEANKGRTMLEFQELMTVFQLLHWNGSLKAMRERHCSRQEVVAHYSNRSLDDEMRSQMALDWIAREHDNPGVIRRELVLAERELETFRMAGRELRFPKEKKDILMIAHNQLGGSALNSATIDD
MRDFLNTKNQTNQSVYLAILRIKMKTPYQIQFEAFNADDFYTEAHAKLYAQFADNLINEGNYSIVYKGVAHACYTPITIDKAPHLKCFVLAPLAVLPEHQGKGYATQLMEQAESELGADVIFVLGDPKHYARRFNAQHNVALPIGSDESPDFWFARELTTDALDGIGQSSSTIKGVFADPIMWSHPDEQI

Soluble on expression in E. coli, soluble:
GSSMKASSGDQGSPPCFLRFPRPVRVVSGAEAELKCVVLGEPPPVVVWEKGGQQLAASERLSFPADGAEHGLLLTAALPTDAGVYVCRARNAAGEAYAAAAVTVLEPPA
MATPAYMSITGTKQGLITAGAFTEDSVGNTYQEGHEDQVMVQGFNHEVIIPRDPQSGQPTGQRVHKPVVITKVFDKASPLLLAALTSGERLTKVEIQWYRTSAAGTQEHYYTTVLEDAIIVDIKDYMHNCQDPGNAHFTHLEDVHFTYRKITWTHEVSGTSGSDDWRSPVAG
ARVDQTPRSVTKETGESLTINCVLRDASYALGSTCWYRKKSGEGNEESISKGGRYVETVNSGSKSFSLRINDLTVEDGGTYRCGLGVAGGYCDYALCSSRYAECGDGTAVTVN
AHHHHHHGSKEKRKYFMAHRIGVIQRSKIRELFERASKMENVISLGIGEPDFDTPNNIKEAAKRALDEGWTHYTPNAGIPELREAIAEYYKKFYGIDVEVDNVLVTAGAYEATYLAFETMLEQGDEVIIPDPAFVCYVEDAKLAEAKPIRLPLREENDFKPDIDELLERITKRTRMIVINYPNNPTGAVLDKETAKAIADVAEDYNIYILSDEPYEHFLYDDAKHYPMIKFAPDNTILANSFSKTFAMTGWRLGFVIAPTQIIREMIKLHAYIIGNVASFVQVAGIEALRSKESWKAVEEMRKEYNERRKLVLQRLRKMPYIKVREPKGAFYVFPNISETEMSSEEFSEWLLEKAKVVVIPGTAFGENGEGYVRISYATSREKLIEAMDRIEKALEEI
MATDSWALAVDEQEAAAESLSNLHLKEEKIKPDTNGAVVKTNANAEKTDEEEKEDRAAQSLLNKLIRSNLVDNTNQVEVLQRDPNSPLYSVKSFEELRLKPQLLQGVYAMGFNRPSKIQENALPLMLAEPPQNLIAQSQSGTGKTAAFVLAMLSQVEPANKYPQCLCLSPTYELALQTGKVIEQMGKFYPELKLAYAVRGNKLERGQKISEQIVIGTPGTVLDWCSKLKFIDPKKIKVFVLDEADVMIATQGHQDQSIRIQRMLPRNCQMLLFSATFEDSVWKFAQKVVPDPNVIKLKREEETLDTIKQYYVLCSSRDEKFQALCNLYGAITIAQAMIFCHTRKTASWLAAELSKEGHQVALLSGEMMVEQRAAVIERFREGKEKVLVTTNVCARGIDVEQVSVVINFDLPVDKDGNPDNETYLHRIGRTGRFGKRGLAVNMVDSKHSMNILNRIQEHFNKKIERLDTDDLDEIEKIAN
MAPVLENRRARHDYEILETYEAGIALKGTEVKSLRAGKVDFTGSFARFEDGELYLENLYIAPYEKGSYANVDPRRKRKLLLHKHELRRLLGKVEQKGLTLVPLKIYFNERGYAKVLLGLARGKKAYEKRREDKKEAVRRALEEL
MVKEPGGKHVLCVGAAVLDTLFRVADMPKGEGKVLPYEVLQIAEGMASSAAYAVHRMGGRASLWGAVGDDETGTRILRDLSESGIDTSGMTVAPGARSALSTIIIDNRGERLIVPFYDHRLHEKKRACTPEDIALFDAVLVDVRWPELALDVLTVARALGKPAILDGDVAPVETLEGLAPAATHIVFSEPAATRLTGLETVKDMLPVLHARYPQTFIAVTAGPAGCWWTEADDPTVHFQTTMQVEAVDTLAAGDIFHGTFALAMAEGMQSRAAVRLSSVAAALKCTVFGGRIGAPTREETEEAMRQWLERESEPALRAS
SLDSNESKLKQKSPAEFFAENKNIAGFDNPGKSLYTTVRELVENALDSAESIEG
GPGSMEDYKAKGNDAFKAKRYQEAIDWYTKAIELDPNGEASGALYSNRAGSWQNLNNFEKAAADSEQCIRLRPDWLKGYFRLGVAMESMVKYDEAQKAFQKALQLSPGNEEVMDKLHAINTKVRERNEKTKSQQCKTPEEAKQLGNSFFKDGKYDQAAEFYTRAIELQTEPVKEKAVYYTNRAACHQQTHMYSLMVDDCNAAIEIDPANVKAYLRRGIAYEGMEKWKLALEDYTKAQSISPGVAGASQGILRCQRVLRS
QSEPELKLESVVIVSRHGVRAPTKATQLMQDVTPDAWPTWPVKLGWLTPRGGELIAYLGHYQRQRLVADGLLAKKGCPQSGQVAIIADVDERTRKTGEAFAAGLAPDCAITVHTQTDTSSPDPLFNPLKTGVCQLDNANVTDAILSRAGGSIADFTGHRQTAFRELERVLNFPQSNLCLKREKQDESCSLTQALPSELKVSADNVSLTGAVSLASMLTEIFLLQQAQGMPEPGWGRITDSHQWNTLLSLHNAQFYLLQRTPEVARSRATPLLDLIKTALTPHPPQKQAYGVTLPTSVLFIAGHDTNLANLGGALELNWTLPGQPDNTPPGGELVFERWRRLSDNSQWIQVSLVFQTLQQMRDKTPLSLNTPPGEVKLTLAGCEERNAQGMCSLAGFTQIVNEARIPACSL
